Laboratory results taken from patent US20250092134A1.

Experiments:
[1] = molecular target: HuTCR Vb17 × Va10.2 (SKW3_1) (human); assay: flow cytometry on SKW3-1 cells
[2] = molecular target: TCR Vβ17 on T cells of PBMCs; assay: cell-based or functional assay
[3] = molecular target: HuTCR Vb17 × Va12 (SKW3-2) (human); assay: flow cytometry on SKW3-2 cells
[4] = molecular target: TCR Vβ17 on T cells of PBMCs; assay: flow cytometry on PBMCs, percent of cells stained
[5] = molecular target: HuTCR Vb7/9 × Va10.2 (SKW3-3) (human); assay: flow cytometry on SKW3-3 cells (no Vβ17)
[6] = molecular target: Vβ17 (on cells expressing Vβ17); assay: cell-based or functional assay
Chain of Vβ17 (on cells expressing Vβ17) (A0A075B6N1 22-114): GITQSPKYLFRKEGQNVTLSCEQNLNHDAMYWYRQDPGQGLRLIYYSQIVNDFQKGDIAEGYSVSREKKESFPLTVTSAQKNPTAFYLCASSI

Chain of HuTCR Vb17 × Va10.2 (SKW3_1) (human) (A0A075B6N1 22-114, chain 1 of 2): as the sequence (A0A075B6N1 22-114) above
Chain of HuTCR Vb17 × Va10.2 (SKW3_1) (human) (A0A087WT01 20-109, chain 2 of 2, further chain): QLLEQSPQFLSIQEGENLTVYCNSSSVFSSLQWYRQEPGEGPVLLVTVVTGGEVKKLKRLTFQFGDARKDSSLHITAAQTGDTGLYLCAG
Chain of HuTCR Vb17 × Va12 (SKW3-2) (human) (A0A075B6N1 22-114): as the sequence (A0A075B6N1 22-114) above
Chain of TCR Vβ17 on T cells of PBMCs (A0A075B6N1 22-114): as above

MFI [1]	Proliferation (EC50, ug/ml) [2]	MFI [3]	PBMC binding (%) [4]	MFI [5]	Cell Internalization (EC50) [6]	Binder
55200 MFI	0.9 µg/mL	56900 MFI	3.27%	438 MFI	–	28C9A5 (antibody, IgG2b, V domains shown) VH: EVQLQESGAELVRPGTSVKMSCKASGYTFTHYWIDWTKQRPGHGLEWIGNIYPGGGYTNYNENFKGKATLTADKSSSTVFMQFSSLTSDDSAIYYCTRKGYYYGSDWYFDVWGTGTTVTVSS VL: QIVLSQSPAIMSASPGEKVTMTCSASSSVSYMHWYQQKSGTSPKRWIYDTSKLASGVPARFSGSGSGTSYSLTISSMEAEDAATYYCQQWSSNPYTFGGGTKLEIK
10100 MFI	–	6600 MFI	2.74%	507 MFI	–	23A9B10 (antibody, V domains shown) VH: EVQLQESGPGLVKPSQSLSLTCSVTGYSITSGYYWNWIRQFLGNKLEWMGYITYDGSNNYNPSLKDRISITRDTSKNQFFLNLNSVTTDDTATYYCARGGGYVPVWGTGTTVTVSS VL: IQMTQSPAFLSVSPGERVSFSCRASQNIGTSIHWYQQRTNGSPRLLIKYASESISGIPSRFSGSGSGTDFTLSINSVESEDFADYYCHQSHNWPTTFGAGTKLELK
39500 MFI	> 5 µg/mL	43100 MFI	2.7%	448 MFI	–	20A9A9 (antibody, V domains shown) VH: EVQLQESGPGLVQPSQSLSITCTVSGFSLTSYGVHWVRQSPGKGLEWLGIIWSAGGTDYNAAFISRLSISKDNSKSQIFFKLNSLHADDTAIYFCARGSFYDYGRLDYWGQGTTLTVSS VL: DIVMTQSHRFMSTSVGDRVSITCKASQDVSTAVAWYQQKPGQSPKLLIYSSSYRYTGVPDRFTGSGSGTDFTFTISSVQAEDLAVYYCQQHYGTPYTFGGGTKLEIQ
47500 MFI	2 µg/mL	56300 MFI	3.06%	427 MFI	–	21G11D5 (antibody, V domains shown) VH: EVQLQESGPDLKKPGETVKISCKASGYTFTTYGMNWVKQAPGKGLKWMGYLNTYSGVSTYADDFKGRFAFSLETSANTAYLQINNLRNDDTATYFCARWGNYGAMDYWGQGTSVTVSS VL: DIVMTQSPLSLPVSLGDQASISCRSSQSIVRSNGFTYLEWYLQKPGQSPELLIYKVSNRFSGVPDRFSGSGSGTDFTLKISRVEAEDLGVYYCFQSSHVPRTFGGGTKLEIK
77400 MFI	–	36500 MFI	3.13%	434 MFI	< 70 pM	28B2A2 (antibody, IgG2a, V domains shown) VH: EVQLQESGPELVKPGASVKMSCKASGYTFTDDNMHWVKQSHGKSLEWIGYINPNNNHTNYNQKFKGKATLTVNKSSSTAYMELRSLTSEDSAVYFCARSTVVPFYAMDYWGQGTSVTVSS VL: DIVMTQSPASLSMAIGEKVTIRCITITDIDDDMNWYQQKPGEPPKLLFSEGNTLRPGVPSRFSSSGYGSDFAFTIENMLSEDVADYYCLQSDNLPLTFGAGTKLELK
45700 MFI	> 5 µg/mL	53800 MFI	2.97%	472 MFI	< 70 pM	28B2A4 (antibody, IgG2a, V domains shown) VH: EVQLQESGPELVKPGASVKMSCKASGYTFTDDNMHWVKQSHGKSLEWIGYINPNNNHTNYNQKFKGKATLTVNKSSSTAYMELRSLTSEDSAVYFCARSTVVPFYAMDYWGQGTSVTVSS VL: DIQMTQSPASLSMAIGEKVTIRCITITDIDDDMNWYQQKPGEPPKLLFSEGNTLRPGVPSRFSSSGYGSDFAFTIENMLSEDVADYYCLQSDNLPLTFGGGTKLEIK

The remaining lines, values behind:

Binder	MFI [1]	Proliferation (EC50, ug/ml) [2]	MFI [3]	PBMC binding (%) [4]	MFI [5]	Cell Internalization (EC50) [6]
23A9C10 (antibody, V domains shown) VH: EVQLQESGPGLVKPSQSLSLTCSVTGYSITSGYYWNWIRQFLGNKLEWMGYITYDGSNNYNPSLKDRISITRDTSKNQFFLNLNSVTTDDTATYYCARGGGYVPVWGTGTTVTVSS VL: DIQMTQSPAFLSVSPGERVSFSCRASQNIGTSIHWYQQRTNGSPRLLIKYASESISGIPSRFSGSGSGTDFTLSINSVESEDFADYYCHQSHNWPTTFGAGTKLELK	7660 MFI	–	3210 MFI	3.2%	458 MFI	–
23A9F7 (antibody, V domains shown) VH: EVQLQESGPGLVKPSQSLSLTCSVTGYSITSGYYWNWIRQFLGNKLEWMGYITYDGSNNYNPSLKDRISITRDTSKNQFFLNLNSVTTDDTATYYCARGGGYVPVWGTGTTVTVSS VL: DVQMTQSPAFLSVSPGERVSFSCRASQNIGTSIHWYQQRTNGSPRLLIKYASESISGIPSRFSGSGSGTDFTLSINSVESEDFADYYCHQSHNWPTTFGAGTKLELK	8600 MFI	–	3400 MFI	2.32%	466 MFI	–
21G11A8 (antibody, V domains shown) VH: EVQLQESGPDLKKPGETVKISCKASGYTFTTYGMNWVKQAPGKGLKWMGYLNTYSGVSTYADDFKGRFAFSLETSANTAYLQINNLRNDDTATYFCARWGNYGAMDYWGQGTSVTVSS VL: DIKMTQSPLSLPVSLGDQASISCRSSQSIVRSNGFTYLEWYLQKPGQSPELLIYKVSNRFSGVPDRFSGSGSGTDFTLKISRVEAEDLGVYYCFQSSHVPRTFGGGTKLEIK	48700 MFI	> 5 µg/mL	38900 MFI	2.96%	532 MFI	–
28D2E8 (antibody, IgG1, V domains shown) VH: EVQLQESGPGLVKPSQSLSLTCSVTGYFISSGYYWKWIRQFPGNKLEWMGYISYDGSNNYNPSLKNRISITRDTSKNQFFLKLNSVTAEDTATYYCARGGGYVPVWGTGTTVTVSS VL: DIKMTQSPLSLPVSLGDQASISCRSSQSIVRSNGNTYLEWYLQKPGQSPKLLIYKVSNRFSGVPDRFSGSGSGTDFTLKISRVEAEDLGVYYCFQSSHVPRTFGGGTKLEIK	43600 MFI	–	50000 MFI	3.3%	452 MFI	–
28D2E6 (antibody, IgG1, V domains shown) VH: EVQLQESGPGLVKPSQSLSLTCSVTGYFISSGYYWKWIRQFPGNKLEWMGYISYDGSNNYNPSLKNRISITRDTSKNQFFLKLNSVTAEDTATYYCARGGGYVPVWGTGTTVTVSS VL: DIQMTQSPLSLPVSLGDQASISCRSSQSIVRSNGNTYLEWYLQKPGQSPKLLIYKVSNRFSGVPDRFSGSGSGTDFTLKISRVEAEDLGVYYCFQSSHVPRTFGGGTKLEIK	38000 MFI	0.3 µg/mL	53800 MFI	3.27%	441 MFI	–
28B2F5 (antibody, IgG2a, V domains shown) VH: EVQLQESGPELVKPGASVKMSCKASGYTFTDDNMHWVKQSHGKSLEWIGYINPNNNHTNYNQKFKGKATLTVNKSSSTAYMELRSLTSEDSAVYFCARSTVVPFYAMDYWGQGTSVTVSS VL: DIKMTQSPASLSMAIGEKVTIRCITITDIDDDMNWYQQKPGEPPKLLFSEGNTLRPGVPSRFSSSGYGSDFAFTIENMLSEDVADYYCLQSDNLPLTFGAGTKLELK	81800 MFI	0.7 µg/mL	36600 MFI	3.2%	438 MFI	< 70 pM
